Source: paper PMC8415449

Molecular target: MtrAB complex (Shewanella oneidensis MR-1)
Experiment: AUC; sedimentation equilibrium (SE-AUC), 20°C, 8,000, 10,000 and 12,000 rpm, absorbance at 410 nm; 50 mM sodium phosphate, 50 mM NaCl, 0.1% (v/v) Triton X-100, pH 7.5; 0.4 uM single proteins, 0.25 uM + 0.25 uM mixture; fits to a single non-interacting species

- stoichiometry N (Ru-MtrC per MtrAB): 1
Substance: Ru-MtrC (soluble Y657C MtrC labelled at Cys657 with a Ru(II)-bipyridine dye) (from UniProt Q8EG34 26-671) (natural protein)
